Test system: wheat
Assay: Wheat growth after seed treatment with complexes of inhibitors and nucleases (Example 5)
Format: in vivo
Conditions: seeds treated 1 hour at 37° C.; cultivation 23° C.
Experimental: Plant: wheat Treatment: The seeds were treated with various products for 1 hour, at 37° C. […] Cultivation temperature 23° C.

B1: Proteinase K: protease (protein, UniProt P06873 106-384, looked up)
Proteinase K: AAQTNAPWGLARISSTSPGTSTYYYDESAGQGSCVYVIDTGIEASHPEFEGRAQMVKTYYYSSRDGNGHGTHCAGTVGSRTYGVAKKTQLFGVKVLDDNGSGQYSTIIAGMDFVASDKNNRNCPKGVVASLSLGGGYSSSVNSAAARLQSSGVMVAVAAGNNNADARNYSPASEPSVCTVGASDRYDRRSSFSNYGSVLDIFGPGTSILSTWIGGSTRSISGTSMATPHVAGLAAYLMTLGKTTAASACRYIADTANKGDLSNIPFGTVNLLAYNNYQA
**Q.** Which “Chlorophyll total” value does the source give for B1 here?
**A.** Its value is 35.2 mg/g.

**Q.** What about the “Emergence (%)” value of the same molecule?
**A.** Its value is 42%.

**Q.** And the Root lenght?
**A.** Its Root lenght is 4.3.

**Q.** What about the Shoot length of the same molecule?
**A.** Its Shoot length is 0.0.

— patent US20240180855A1, “BIOACTIVE PRODUCTS” (priority 2021, published 2024)
